US20150203577A1 (Chugai, published 2015)
Positions count from the first letter of the chain named. Names may count otherwise.

Columns and labels:
mouse FcγRII [1] = molecular target: T1, mouse FcγRII (mouse, UniProt P08101 30-210); experiment: SPR Biacore T200, KD ratio
T1 construct: also called mFcγRII; mFcgRII
T1 sequence: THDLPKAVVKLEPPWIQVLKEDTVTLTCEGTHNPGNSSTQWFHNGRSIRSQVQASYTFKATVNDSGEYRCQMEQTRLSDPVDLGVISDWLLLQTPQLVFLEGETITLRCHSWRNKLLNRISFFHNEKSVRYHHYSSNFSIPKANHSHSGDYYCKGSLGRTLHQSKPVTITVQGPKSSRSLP
Procedure: (§1) The antibody L chain commonly used was the L chain MRAL-k0 (SEQ ID NO: 2) of the anti-IL-6 receptor antibody tocilizumab. The antibody H chain constant region used was each of the aforementioned 8 Fc variants prepared by altering human IgG1 hIgG1 (SEQ ID NO: 3) as a template.
(§2) Each altered antibody was analyzed for its interaction with each Fcγ receptor prepared above using Biacore T100 (GE Healthcare Japan Corp.), Biacore T200 (GE Healthcare Japan Corp.), Biacore A100, or Biacore 4000. The running buffer used was HBS-EP+ (GE Healthcare Japan Corp.). The assay temperature was set to 25° C. The sensor chips used were chips prepared by immobilizing Protein L (ACTIGEN or BioVision) onto Series S Sensor Chip CM5 (GE Healthcare Japan Corp.) or Series S Sensor Chip CM4 (GE Healthcare Japan Corp.) by the amine coupling method.
(§3) In order to calculate the KD value of each altered antibody for FcγR, kinetic analysis was conducted according to the following method: first, the antibody of interest was captured onto any of these chips and allowed to interact with mFcγR diluted with a running buffer. For the obtained sensorgram, the assay results were globally fit into the 1:1 Langmuir binding model using Biacore Evaluation Software to calculate an association rate constant ka (L/mol/s) and a dissociation rate constant kd (1/s). From these values, the dissociation constant KD (mol/L) was calculated.

mouse FcγRIII [2] = molecular target: T2, mouse FcγRIII (mouse, UniProt P08508 31-215); experiment: SPR Biacore T200, KD ratio
T2 construct: also called mFcγRIII; mFcgRIII
T2 chain: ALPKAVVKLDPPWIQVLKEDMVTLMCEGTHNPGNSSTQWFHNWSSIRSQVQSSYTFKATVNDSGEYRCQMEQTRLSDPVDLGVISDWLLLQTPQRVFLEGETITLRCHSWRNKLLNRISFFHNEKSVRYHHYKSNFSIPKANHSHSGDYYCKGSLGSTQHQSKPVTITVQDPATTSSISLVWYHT
Procedure: as §1, §2, §3

mouse FcγRII [3] = molecular target: T1, mouse FcγRII; experiment: SPR Biacore T200, KD ratio; remark: listed apart in the source
mouse FcγRIII [4] = molecular target: T2, mouse FcγRIII; experiment: SPR Biacore T200, KD ratio
mouse FcγRII [5] = molecular target: T1, mouse FcγRII; experiment: SPR Biacore T200, KD ratio; remark: listed apart in the source
Description: (§4) The antibody H chain variable region used was the variable region H237 (SEQ ID NO: 1) of the H chain VH3-IgG1 of the anti-IL-6 receptor antibody Fv4-IgG1 described in WO2009/125825. The antibody L chain commonly used was the L chain MRAL-k0 (SEQ ID NO: 2) of the anti-IL-6 receptor antibody tocilizumab. H237-MB476/MRAL-k0 and H237-MB515/MRAL-k0 were used as templates to introduce new alterations. These variants were expressed and purified by the method of Reference Example 1 and evaluated for their binding to mFcγRII and mFcγRIII by the method of Reference Example 2 using Biacore T200.
as §2, §3

mouse FcγRIII [6] = molecular target: T3, mouse FcγRIII (mouse, UniProt P08508 31-215); experiment: SPR (Biacore), antibody captured on Protein L, mFcγR as analyte
T3 construct: also called mFcγRIII; mFcgRIII
T3 chain: T2 chain
Procedure: (§5) The antibody of interest was captured onto any of these sensor chips and allowed to interact with mFcγR diluted with a running buffer. The amount bound to the antibody was measured and compared among antibodies. Since the amount of mFcγR bound depends on the amount of the captured antibody, a correction value determined by dividing the amount of mFcγR bound by the amount of each captured antibody was used in the comparison. The antibody captured on the sensor chip was washed off through the reaction of 10 mM glycine-HCl (pH 1.5) to regenerate the sensor chip, which was repetitively used.
as §3

mouse FcγRII [7] = molecular target: T4, mouse FcγRII (mouse, UniProt P08101 30-210); experiment: as above
T4 construct: also called mFcγRII; mFcgRII
T4 sequence: T1 sequence
Procedure: as §5, §3

[8] = molecular target: T5, mouse FcγRII extracellular domain, C-terminal His tag (mouse, UniProt P08101 30-210); experiment: SPR (Biacore T200)
T5 construct: Whole entry named; also called mFcγRII; mFcgRII
T5 sequence: T1 sequence
Description: as §4, with “H237-MB476/MRAL-k0 and H237-MB515/MRAL-k0 were used as templates to introduce new alterations.” left out
as §2

[9] = molecular target: T6, mouse FcγRIII extracellular domain, C-terminal His tag (mouse, UniProt P08508 31-215); experiment: SPR (Biacore T200); KD of H237-mIgG1/MRAL-k0 / KD of variant
T6 construct: Whole entry named; also called mFcγRIII; mFcgRIII
T6 chain: T2 chain

[10] = molecular target: T7, mouse FcγRIII extracellular domain, C-terminally His-tagged (mouse, UniProt P08508 31-215); experiment: SPR Biacore T200
T7 construct: the whole entry is named; also called mFcγRIII; mFcgRIII
T7 chain: T2 chain

[11] = molecular target: T8, mouse FcγRII extracellular domain, C-terminally His-tagged (mouse, UniProt P08101 30-210); experiment: SPR Biacore T200, KD ratio
T8 construct: the whole entry is named; also called mFcγRII; mFcgRII
T8 sequence: T1 sequence

[12] = molecular target: T6, mouse FcγRIII extracellular domain, …; experiment: SPR (Biacore T200)
Description: as §4, with “H237-MB476/MRAL-k0 and H237-MB515/MRAL-k0 were used as templates to introduce new alterations.” left out
as §2

[13] = molecular target: T5, mouse FcγRII extracellular domain, …; experiment: SPR (Biacore T200); KD of H237-mIgG1/MRAL-k0 / KD of variant
[14] = molecular target: T7, mouse FcγRIII extracellular domain, …; experiment: SPR Biacore T200, antibody captured on Protein L
Procedure: As for alterations, “X000Z” represents the substitution of amino acid X at EU numbering position 000 by amino acid Z. In this context, X and Z represent the one-letter codes of the amino acid residues.
as §2, §3

B1: FS134 (antibody, human IgG1, kappa)
heavy: QVQLQESGPGLVKPSETLSLTCAVSGHSISHDHAWSWVRQPPGEGLEWIGFISYSGITNYNPSLQGRVTISRDNSKNTLYLQMNSLRAEDTAVYYCARSLARTTAMDYWGEGTLVTVSSASTKGPSVFPLAPSSKSTSGGTAALGCLVKDYFPEPVTVSWNSGALTSGVHTFPAVLQSSGLYSLSSVVTVPSSSLGTQTYICNVNHKPSNTKVDKKVEPKSCDKTHTCPPCPAPELLGGPDVFLFPPKPKDTLMISRTPEVTCVVVDVSDEDPEVKFNWYVDGVEVHNAKTKPREEQYNSTYRVVSVLTVLHQDWLNGKEYKCKVSNKAYPAPIEKTISKAKGQPREPQVYTLPPSRDELTKNQVSLTCLVKGFYPSDIAVEWESNGQPENNYKTTPPVLDSDGSFFLYSKLTVDKSRWQQGNVFSCSVMHEALHNHYTQKSLSLSPGK
light: not shown
notes: human IgG1 constant region variant; copies: 2 + 2
- relative mFcγRII-binding activity (mIgG1 = 1) (mouse FcγRII [1]): 58.2 fold
- relative mFcγRIII-binding activity (mIgG1 = 1) (mouse FcγRIII [2]): 20.8 fold

B2: F616 (antibody, human IgG1, kappa)
heavy: B1 heavy with D270H, K328D
light: not shown
notes: as for B1
- relative mFcγRII-binding activity (mIgG1 = 1) (mouse FcγRII [1]): 186 fold
- relative mFcγRIII-binding activity (mIgG1 = 1) (mouse FcγRIII [2]): 50.1 fold

B3: FS133 (antibody, human IgG1, kappa)
heavy: B1 heavy with Y330W
light: not shown
notes: as for B1
- relative mFcγRII-binding activity (mIgG1 = 1) (mouse FcγRII [1]): 162 fold
- relative mFcγRIII-binding activity (mIgG1 = 1) (mouse FcγRIII [2]): 86.5 fold

B4: FS135 (antibody, human IgG1, kappa)
heavy: B1 heavy with S269A, D270H
light: not shown
notes: as for B1
- relative mFcγRII-binding activity (mIgG1 = 1) (mouse FcγRII [1]): 138 fold
- relative mFcγRIII-binding activity (mIgG1 = 1) (mouse FcγRIII [2]): 34.4 fold

B5: FS132 (antibody, human IgG1, kappa)
heavy: B1 heavy with D270H, A329D
light: not shown
notes: as for B1
- relative mFcγRII-binding activity (mIgG1 = 1) (mouse FcγRII [1]): 96.7 fold
- relative mFcγRIII-binding activity (mIgG1 = 1) (mouse FcγRIII [2]): 41.8 fold

B6: FS131 (antibody, human IgG1, kappa)
heavy: B1 heavy with L236W, D270H
light: not shown
notes: as for B1
- relative mFcγRII-binding activity (mIgG1 = 1) (mouse FcγRII [1]): 144 fold
- relative mFcγRIII-binding activity (mIgG1 = 1) (mouse FcγRIII [2]): 33.2 fold

B7: H237-MB338/MRAL-k0 (antibody, mouse IgG1, kappa)
heavy: QVQLQESGPGLVKPSETLSLTCAVSGHSISHDHAWSWVRQPPGEGLEWIGFISYSGITNYNPSLQGRVTISRDNSKNTLYLQMNSLRAEDTAVYYCARSLARTTAMDYWGEGTLVTVSSAKTTPPSVYPLAPGSAAQTNSMVTLGCLVKGYFPEPVTVTWNSGSLSSGVHTFPAVLQSDLYTLSSSVTVPSSTWPSETVTCNVAHPASSTKVDKKIVPRDCGCKPCICEDPEVEDVFIFPPKPKDVLTITLTPKVTCVVVDISKDDPEVQFSWFVDDVEVHTAQTQPREEQFNSTFRSVSELPIMHQDWLNGKEFKCRVNSAAFPAPIEKTISKTKGRPKAPQVYTIPPPKEQMAKDKVSLTCMITDFFPEDITVEWQWNGQPAENYKNTQPIMDTDGSYFVYSKLNVQKSNWEAGNTFTCSVLHEGLHNHHTEKSLSHSPGK
light: not shown
notes: copies: 2 + 2
- Relative mFcγRII-binding activity (MB110 = 1) (mouse FcγRII [3]): 3.44 fold
- relative mFcγRII-binding activity (mIgG1 = 1) (mouse FcγRII [3]): 42.2 fold
- Relative mFcγRIII-binding activity (MB110 = 1) (mouse FcγRIII [4]): 0.64 fold
- relative mFcγRIII-binding activity (mIgG1 = 1) (mouse FcγRIII [4]): 2.6 fold
- mFcγRII-binding activity relative to H237-MB302/MRAL-k0 (before the introduction of V231D) (mouse FcγRII [5]): ~0.8 fold

B8: H237-mIgG1/MRAL-k0 (antibody)
heavy: B7 heavy with E229T, D230V, E234S, D235S
light: not shown
notes: Anti-IL-6 receptor antibody with unaltered mouse IgG1 H chain constant region; copies: 2 + 2
- Kd (mouse FcγRIII [6]): 282 nM

B9: H237-MB492/MRAL-k0 (antibody, mouse IgG1, kappa)
heavy: B7 heavy with D230P, P231N, N320D
light: not shown
notes: mouse IgG1 CH variant; copies: 2 + 2
- Kd (mouse FcγRII [7]): 0.338 nM
- relative mFcγRII-binding activity (mIgG1 = 1) (mouse FcγRII [7]): 622 fold
- Kd (mouse FcγRIII [6]): 25.8 nM
- relative mFcγRIII-binding activity (mIgG1 = 1) (mouse FcγRIII [6]): 10.9 fold

B10: H237-MB675/MRAL-k0 (antibody)
heavy: B7 heavy with E229I, D230P, P231A, D235K
light: not shown
notes: copies: 2 + 2
- binding result [8]: no binding
- relative mFcγRIII-binding activity (mIgG1 = 1) [9]: 0.01 fold

B11: H237-MB721/MRAL-k0 (antibody, mouse IgG1, kappa)
heavy: B7 heavy with D230P, P231N, D235H
light: not shown
notes: copies: 2 + 2
- binding result [10]: no binding
- relative mFcγRII-binding activity (mIgG1 = 1) [11]: 0.3 fold

B12: H237-MB677/MRAL-k0 (antibody)
heavy: B7 heavy with E229Q, D230P, P231N, D235K
light: not shown
notes: copies: 2 + 2
- binding result [8]: no binding
- relative mFcγRIII-binding activity (mIgG1 = 1) [9]: 0.03 fold

B13: H237-MB390/MRAL-k0 (antibody, mouse IgG1, kappa)
heavy: B7 heavy with D230P, P231N
light: not shown
notes: mIgG1 with T230E/V231P/P232N/S238E/S239D; also called template T8; copies: 2 + 2
- relative mFcγRII-binding activity (H237-mIgG1/MRAL-k0 = 1) (mouse FcγRII [5]): > 500 fold

B14: H237-MB792/MRAL-k0 (antibody, mouse IgG1, kappa)
heavy: B7 heavy with E229Q, D230P, P231N, D235V
light: not shown
notes: copies: 2 + 2
- binding result [10]: no binding
- relative mFcγRII-binding activity (mIgG1 = 1) [11]: 0.31 fold

B15: H237-MB477/MRAL-k0 (antibody, mouse IgG1, kappa)
heavy: B7 heavy with D230P, P231N, S263A
light: not shown
notes: as for B9
- Kd (mouse FcγRII [7]): 1.07 nM
- relative mFcγRII-binding activity (mIgG1 = 1) (mouse FcγRII [7]): 196 fold
- Kd (mouse FcγRIII [6]): 94 nM
- relative mFcγRIII-binding activity (mIgG1 = 1) (mouse FcγRIII [6]): 3 fold

B16: H237-MB606/MRAL-k0 (antibody, mouse IgG1, kappa)
heavy: B7 heavy with D230V, E234D, D235S, S263M
light: not shown
notes: copies: 2 + 2
- binding result [12]: no binding
- relative mFcγRII-binding activity (mIgG1 = 1) [13]: 0.05 fold

B17: H237-mIgG1/MRAL-k0 (antibody)
heavy: B7 heavy with E229T, D230V, E234S, D235S
light: not shown
notes: Anti-IL-6 receptor antibody with the unaltered mouse IgG1 H chain constant region; copies: 2 + 2
- Kd [14]: 282 nM
